“And” between values parts separate entries of the source, which are not always exact repeats. Equal values may be shown once.
Experiments:
Test in all cases: cell-based or functional assay
[1] = target: cynomolgus monkey CD40 on cells (cynomolgus, UniProt G7PG38 21-278)
human CD40 on cells [2] = target: T1, human CD40 on cells (human, UniProt P25942 21-277)
[3] = target: rhesus monkey CD40 on cells (rhesus, UniProt F6SNI1 21-278)
human CD40 on cells [4] = target: T1, human CD40 on cells; remark: listed apart in the source
human CD40 on cells [5] = target: T1, human CD40 on cells; remark: listed apart in the source

T1 sequence (P25942 21-277 limits assumed): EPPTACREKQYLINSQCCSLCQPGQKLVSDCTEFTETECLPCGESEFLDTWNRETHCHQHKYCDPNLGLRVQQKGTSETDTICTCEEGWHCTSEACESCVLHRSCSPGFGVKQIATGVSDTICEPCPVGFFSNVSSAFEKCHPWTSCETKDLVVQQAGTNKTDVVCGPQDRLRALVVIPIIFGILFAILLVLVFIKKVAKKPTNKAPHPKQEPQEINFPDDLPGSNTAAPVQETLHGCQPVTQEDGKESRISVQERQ

B1: CFZ533 (antibody, human IgG1, kappa, N297A)
heavy: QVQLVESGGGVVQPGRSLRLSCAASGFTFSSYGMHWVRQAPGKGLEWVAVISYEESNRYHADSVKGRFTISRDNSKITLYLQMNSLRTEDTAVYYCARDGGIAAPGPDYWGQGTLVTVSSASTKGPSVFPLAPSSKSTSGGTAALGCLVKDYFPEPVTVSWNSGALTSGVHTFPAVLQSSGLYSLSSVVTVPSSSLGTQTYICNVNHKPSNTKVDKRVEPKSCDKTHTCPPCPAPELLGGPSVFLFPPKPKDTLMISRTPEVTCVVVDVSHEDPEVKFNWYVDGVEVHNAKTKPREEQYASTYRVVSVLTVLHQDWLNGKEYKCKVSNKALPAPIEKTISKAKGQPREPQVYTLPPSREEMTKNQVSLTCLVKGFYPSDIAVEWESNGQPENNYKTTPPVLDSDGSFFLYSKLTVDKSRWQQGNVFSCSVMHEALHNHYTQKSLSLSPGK
light: DIVMTQSPLSLTVTPGEPASISCRSSQSLLYSNGYNYLDWYLQKPGQSPQVLISLGSNRASGVPDRFSGSGSGTDFTLKISRVEAEDVGVYYCMQARQTPFTFGPGTKVDIRRTVAAPSVFIFPPSDEQLKSGTASVVCLLNNFYPREAKVQWKVDNALQSGNSQESVTEQDSKDSTYSLSSTLTLSKADYEKHKVYACEVTHQGLSSPVTKSFNRGEC
- Inhibition of rCD154-induced proliferation (IC50 PBMCs), cynomolgus [1]: 0.01 µg/ml and 0.07 µM
- Inhibition of rCD154-induced proliferation (IC50 PBMCs), human (human CD40 on cells [2]): 0.017 µg/ml and 0.12 µM
- Inhibition of rCD154-induced proliferation (IC50 PBMCs), rhesus [3]: 0.026 µg/ml and 0.18 µM
- IC50, inhibition of rCD154-induced TNF production by primary monocyte-derived dendritic cells (human CD40 on cells [4]): 0.04 µg/ml and 0.27 nM
- IC50, inhibition of rCD154-induced proliferation of human PBMCs (human CD40 on cells [4]): 0.12 nM
- IC50, inhibition of rCD154-induced proliferation of human whole blood cultures (human CD40 on cells [4]): 0.024 µg/ml and 0.16 nM
- IC50, inhibition of rCD154-induced proliferation of purified human tonsillar B cells (human CD40 on cells [4]): 0.071 µg/ml and 0.47 nM
- IC50 (read off the curve): inhibition of rCD154-induced CD69 expression on CD20pos B cells, human whole blood (human CD40 on cells [5]): ~0.1 µg/mL

Source: patent US20190153111A1 (Novartis, published 2019)
